In article PMC11001860, “The assembly platform FimD is required to obtain the most stable quaternary structure of type 1 pili” (Nature Communications, 2024):

T1: FimC, periplasmic chaperone of type 1 pili (Escherichia coli, UniProt P31697 37-241)
T1 construct: FimC, periplasmic chaperone of type 1 pili, Escherichia coli; source: E. coli BL21(DE3) with pFimC-cyt, purified (SP-Sepharose, Superdex 75 SEC)
T1 sequence: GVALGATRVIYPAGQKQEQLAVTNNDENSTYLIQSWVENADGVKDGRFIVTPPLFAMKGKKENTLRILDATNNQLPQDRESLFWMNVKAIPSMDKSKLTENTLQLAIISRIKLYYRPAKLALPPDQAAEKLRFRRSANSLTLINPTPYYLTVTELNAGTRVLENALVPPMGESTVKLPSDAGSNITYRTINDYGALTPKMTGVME

T2: FimChis (Escherichia coli, UniProt P31697 37-241)
T2 construct: FimC, periplasmic chaperone of type 1 pili, Escherichia coli; source: E. coli BL21(DE3) with pFimChis-cyt, purified (SP-Sepharose, Superdex 75 SEC)
T2 sequence (looked up): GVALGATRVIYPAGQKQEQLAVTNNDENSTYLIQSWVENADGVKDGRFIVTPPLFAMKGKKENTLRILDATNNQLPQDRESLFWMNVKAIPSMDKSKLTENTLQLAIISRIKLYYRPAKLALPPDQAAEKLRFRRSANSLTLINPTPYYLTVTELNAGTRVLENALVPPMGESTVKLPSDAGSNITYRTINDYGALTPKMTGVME


Assays:
[1] = biological target: the molecule itself; test: negative-stain EM; P pilus rods assembled in vitro from 50 µM PapA-PapDhis complex, 20 mM Tris-HCl pH 8.0, 50 mM NaCl, 37 °C, 7 days
[2] = biological target: T1, FimC, periplasmic chaperone of type 1 …; test: SEC; complex formed by rapid dilution of unfolded, disulfide-intact FimA into FimC (15 min, 23 °C), then Sephadex G25, Source 30S cation exchange and Superdex 75 in 20 mM Tris-HCl pH 8.0, 50 mM NaCl; details: both partners purified
[3] = biological target: T2, FimChis; test: as above; details: both partners purified
[4] = biological target: the molecule itself; test: cryo-EM structure; in vitro-assembled type 1 pilus rods, helical reconstruction, 2.69 Å; sample diluted to 100 µM in ddH2O

Binder	binding result [1]	binding result [2]	binding result [3]	binding result [4]
PapA, main structural subunit of the P pilus rod (co-expressed with PapDhis) (natural protein, PapA, main structural subunit of the P pilus rod, Escherichia coli; also called in vitro-assembled P pili; source: E. coli HM125 with PapDA (pTRC99a), periplasmic extract; purified as a complex with PapDhis (HisTrap, Source 30S, SEC)) APTIPQGQGKVTFNGTVVDAPCSISQKSADQSIDFGQLSKSFLEAGGVSKPMDLDIELVNCDITAFKGGNGAKKGTVKLAFTGPIVNGHSDELDTNGGTGTAIVVQGAGKNVVFDGSEGDANTLKDGENVLHYTAVVKKSSAVGAAVTEGAFSAVANFNLTYQ	binds			
FimA, main structural subunit of the type 1 pilus rod (recombinant, assembled in vitro) (natural protein, FimA, main structural subunit of the type 1 pilus rod of Escherichia coli; printed residue numbers run to Q159; The same FimA was used for rods assembled from FimA monomers, from FimA-FimC complexes and with FimD (FimD-cat); also called FimA monomers; self-complemented FimA) AATTVNGGTVHFKGEVVNAACAVDAGSVDQTVQLGQVRTASLAQEGATSSAVGFNIQLNDCDTNVASKAAVAFLGTAIDAGHTNVLALQSSAAGSATNVGVQILDRTGAALTLDGATFSSETTLNNGTNTIPFQARYFATGAATPGAANADATFKVQYQ		binds	binds	binds
